Data on 8 sequences can be found in US20240218339.

The subject of data set [1] is T1, MG31-1 (uncultivated microorganism (metagenomic)).
T1 sequence: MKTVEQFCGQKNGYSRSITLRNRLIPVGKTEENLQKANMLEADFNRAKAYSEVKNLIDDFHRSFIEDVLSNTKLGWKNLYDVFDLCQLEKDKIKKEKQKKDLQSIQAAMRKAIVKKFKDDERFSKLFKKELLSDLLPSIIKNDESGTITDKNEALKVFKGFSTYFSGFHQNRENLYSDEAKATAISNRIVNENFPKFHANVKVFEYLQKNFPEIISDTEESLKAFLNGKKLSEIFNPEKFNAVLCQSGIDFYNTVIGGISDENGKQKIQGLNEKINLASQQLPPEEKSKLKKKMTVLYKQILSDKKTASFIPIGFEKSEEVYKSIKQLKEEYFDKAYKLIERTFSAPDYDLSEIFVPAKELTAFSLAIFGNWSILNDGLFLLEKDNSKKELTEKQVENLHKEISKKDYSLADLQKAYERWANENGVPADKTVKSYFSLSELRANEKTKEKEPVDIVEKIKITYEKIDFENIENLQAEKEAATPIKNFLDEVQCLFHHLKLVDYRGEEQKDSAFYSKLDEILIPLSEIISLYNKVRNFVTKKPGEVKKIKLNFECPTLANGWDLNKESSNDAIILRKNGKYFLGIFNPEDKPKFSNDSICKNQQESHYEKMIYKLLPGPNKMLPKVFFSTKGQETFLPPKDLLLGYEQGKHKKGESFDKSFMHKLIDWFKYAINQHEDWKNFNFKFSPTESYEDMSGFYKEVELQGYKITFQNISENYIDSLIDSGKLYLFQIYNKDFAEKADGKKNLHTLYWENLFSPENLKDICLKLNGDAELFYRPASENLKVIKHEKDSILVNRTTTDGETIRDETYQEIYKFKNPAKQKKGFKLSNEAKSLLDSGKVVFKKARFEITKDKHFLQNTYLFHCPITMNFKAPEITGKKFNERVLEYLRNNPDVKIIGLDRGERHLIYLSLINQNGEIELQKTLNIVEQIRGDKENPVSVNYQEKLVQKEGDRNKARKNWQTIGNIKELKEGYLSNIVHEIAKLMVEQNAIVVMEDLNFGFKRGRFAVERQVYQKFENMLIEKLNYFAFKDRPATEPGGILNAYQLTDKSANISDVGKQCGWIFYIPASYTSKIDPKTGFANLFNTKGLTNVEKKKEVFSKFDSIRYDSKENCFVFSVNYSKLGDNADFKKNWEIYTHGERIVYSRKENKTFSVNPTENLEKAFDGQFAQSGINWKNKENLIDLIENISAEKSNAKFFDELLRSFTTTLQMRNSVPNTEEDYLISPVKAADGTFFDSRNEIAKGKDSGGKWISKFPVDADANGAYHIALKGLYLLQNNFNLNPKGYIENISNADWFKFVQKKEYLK
Kind of data set: cell_activity. The following applies: HEK cells.

Data set [2] relates to T2, MG29-1 (uncultivated microorganism (metagenomic)).
T2 sequence: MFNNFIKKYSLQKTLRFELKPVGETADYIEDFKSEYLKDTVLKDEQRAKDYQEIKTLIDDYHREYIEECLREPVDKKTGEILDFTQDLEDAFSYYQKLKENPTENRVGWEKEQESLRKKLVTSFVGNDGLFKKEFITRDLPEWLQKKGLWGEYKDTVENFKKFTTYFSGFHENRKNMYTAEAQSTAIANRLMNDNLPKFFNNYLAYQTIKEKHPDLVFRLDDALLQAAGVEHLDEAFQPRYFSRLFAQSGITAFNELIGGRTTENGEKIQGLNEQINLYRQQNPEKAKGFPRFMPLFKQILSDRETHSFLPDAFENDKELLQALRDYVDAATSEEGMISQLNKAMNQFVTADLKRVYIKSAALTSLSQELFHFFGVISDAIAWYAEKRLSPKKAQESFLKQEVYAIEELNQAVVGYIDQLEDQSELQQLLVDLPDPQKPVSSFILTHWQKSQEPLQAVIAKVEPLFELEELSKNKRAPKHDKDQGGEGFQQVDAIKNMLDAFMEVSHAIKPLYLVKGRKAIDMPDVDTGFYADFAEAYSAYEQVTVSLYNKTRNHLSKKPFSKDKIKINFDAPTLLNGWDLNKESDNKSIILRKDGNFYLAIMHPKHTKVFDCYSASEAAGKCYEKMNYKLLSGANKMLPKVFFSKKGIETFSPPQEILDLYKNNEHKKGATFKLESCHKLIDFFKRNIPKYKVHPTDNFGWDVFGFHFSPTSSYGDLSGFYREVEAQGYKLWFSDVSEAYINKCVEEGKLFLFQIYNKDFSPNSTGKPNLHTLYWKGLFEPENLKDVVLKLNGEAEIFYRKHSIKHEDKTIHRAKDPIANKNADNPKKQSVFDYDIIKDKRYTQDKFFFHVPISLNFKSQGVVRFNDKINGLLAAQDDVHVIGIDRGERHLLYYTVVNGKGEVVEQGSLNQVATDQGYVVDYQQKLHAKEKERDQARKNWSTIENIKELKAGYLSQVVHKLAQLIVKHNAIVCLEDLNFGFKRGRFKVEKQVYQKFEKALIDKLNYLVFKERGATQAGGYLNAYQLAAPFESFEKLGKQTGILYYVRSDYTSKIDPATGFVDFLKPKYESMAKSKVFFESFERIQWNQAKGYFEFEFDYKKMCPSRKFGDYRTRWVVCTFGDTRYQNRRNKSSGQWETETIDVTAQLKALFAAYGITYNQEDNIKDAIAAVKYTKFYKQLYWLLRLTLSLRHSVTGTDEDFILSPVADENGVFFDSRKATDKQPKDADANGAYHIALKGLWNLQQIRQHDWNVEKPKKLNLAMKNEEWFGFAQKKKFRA
Kind of data set: cell_activity.

For the sequence “AAUUUCUACUAUUGUAGAUNGCCAGAGCCGGGGUGUGCAGACGG / TCCCTCTTTAGCCAGAGCCGGGGTGTGCAGACGG / CCGTCTGCACACCCCGGCTCTGGCTAAAGAGGGA [MG31-1 guide VEGFA target9 ; VEGFA target9]”, the activity in data set [1] (PAM YTTn (TTTA), SD 1.92) amounted to 6.72 % NHEJ. In the case of “AAUUUCUACUAUUGUAGAUNUGUGAGGGAGCACCGUUCUCUAGA / TACATAGTTGTGTGAGGGAGCACCGTTCTCTAGA / TCTAGAGAACGGTGCTCCCTCACACAACTATGTA”, the activity in data set [2] (PAM KTTG (GTTG), HEK293T plasmid transfection, SD 1.57) was 30.4 % NHEJ. Regarding “AAUUUCUACUAUUGUAGAUNCUUGGACCUUGUUUUGCUUACUGU / ACAAATTTTACTTGGACCTTGTTTTGCTTACTGT / ACAGTAAGCAAAACAAGGTCCAAGTAAAATTTGT”, the activity in data set [1] (PAM TTTA, SD 0.75) was -0.32 % NHEJ. Regarding “AAUUUCUACUAUUGUAGAUNCCGAUCGUUACAGGAAAAUCUG / GTTCCCGATCGTTACAGGAAAATCTG / CAGATTTTCCTGTAACGATCGGGAAC [mAlb29-1-2 sgRNA ; mouse albumin intron 1 mAlb29-1-2 site]”, the activity in data set [2] (PAM GTTC, Hepa1-6 RNP nucleofection, guide backbone inferred) amounted to 0 % indel. Turning to “AAUUUCUACUAUUGUAGAUNGAAAGGGGGUGGGGGGAGUUUGCU / ATGGGCTTTGGAAAGGGGGTGGGGGGAGTTTGCT / AGCAAACTCCCCCCACCCCCTTTCCAAAGCCCAT [MG29-1 guide VEGFA target8 ; VEGFA target8]”, the activity in data set [2] (PAM KTTG (TTTG), HEK293T plasmid transfection, SD 10.17) was 30.1 % NHEJ.

For the sequence “AAUUUCUACUAUUGUAGAUNCGCACUAAGGAAAGUGCAAAGU / TTTGCGCACTAAGGAAAGTGCAAAGT / ACTTTGCACTTTCCTTAGTGCGCAAA [hAlb_g87 sgRNA ; human albumin intron 1 g87 site]”, in data set [2] (PAM TTTG, RNP nucleofection HepG2, guide backbone inferred), the activity stood at 97 % indel. With “AAUUUCUACUAUUGUAGAUNUGAAGUCUUACAAGGUUAUCUUAU / TTTGTATTTGTGAAGTCTTACAAGGTTATCTTAT / ATAAGATAACCTTGTAAGACTTCACAAATACAAA [MG31-1 guide albumin target4 ; Albumin target4]”, the activity in data set [1] (PAM YTTn (TTTG), SD 2.72) stood at 7.05 % NHEJ. For the sequence “AAUUUCUACUAUUGUAGAUNGGAGGUCAGAAAUAGGGGGUCCAG / TAGCTGTTTGGGAGGTCAGAAATAGGGGGTCCAG / CTGGACCCCCTATTTCTGACCTCCCAAACAGCTA [MG31-1 guide VEGFA target7 ; VEGFA target7]”, the activity in data set [1] (PAM YTTn (TTTG), SD 8.67) was found to be 17.4 % NHEJ.
